# Test results taken from article PMC11046469, “Leveraging a Phage-Encoded Noncanonical Amino Acid: A Novel Pathway to Potent and Selective Epigenetic Reader Protein Inhibitors” (ACS Central Science, 2024).
# Target: T1, ENL YEATS domain (AviSUMO-ENL YEATS) (Homo sapiens, UniProt Q03111)
# T1 construct: encoding ENL YEATS (aa 1−148) was cloned in pET28a-; made in house; host or cells: E. coli BL21(DE3pLysS), co-expressed with BirA (pBirAcm)
# T1 sequence (Q03111 1-148): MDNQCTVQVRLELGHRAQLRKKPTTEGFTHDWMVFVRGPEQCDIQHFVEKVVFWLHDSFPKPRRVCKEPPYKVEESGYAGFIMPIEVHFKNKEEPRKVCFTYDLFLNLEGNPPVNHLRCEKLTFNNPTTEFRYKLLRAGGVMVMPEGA
# Test: Phage panning of BuK-containing 7-mer library against AviSUMO-ENL YEATS with Illumina NGS abundance
# Settings: sheet ENLR3: round 3 of panning against ENL YEATS; TAG = amber codon (BuK); 7-mer library positions V1-V7
# Description: We utilized a previously established amber-obligate 7-mer phage display library to develop a phage display library enriched with BuK-containing 7-mer peptides. For detailed characterizations, including analysis of amber codon percentages, NNK trinucleotide analysis, and amino acid distribution at each position within the library, please refer to the work of Tharp et al.[10] Furthermore, the comprehensive raw NGS data for the amber-obligate 7-mer phage library can be found in the NCBI’s Sequence Read Archive, under the accession ID PRJNA606283. To produce the BuK-containing 7-mer phage library, the phages were produced in the presence of 5 mM BuK using TOP10 cells harboring the following three plasmids: (1) pADL-gIII, which contains the 7-mer amber-obligate peptide-coding DNA library positioned at the N-terminus of M13 pIII gene; (2) pCDF-BuKRS, which encodes BuKRS and its cognate tRNA^Pyl for the genetic incorporation of BuK at amber codons in the 7-mer library; and (3) M13KO7TAA, a helper phage plasmid engineered to have a TAA mutation at pIII so that its lack of a functional pIII allows an efficient multivalent display of the 7-mer library. The ENL YEATS domain containing an N-terminal AviSUMO-Tag was recombinantly expressed in E. coli together with BirA, a biotin ligase, for site-specific biotinylation at the AviTag. The biotinylated AviSUMO-ENL YEATS was immobilized on streptavidin-coated magnetic beads for panning with the BuK-containing phages. […] Phage libraries collected from the first and third rounds of selection were sequenced using Illumina next generation sequencing (NGS) and all sequenced data are available through the NCBI SRA database (Project PRJNA1041845). To prevent possible sequencing errors from affecting conclusions, sequences were filtered using previously published paired-end processing,[10] where any sequences containing more than one mismatch in the nonlibrary region or any mismatch in the library region were discarded. The NGS data provided DNA sequences encompassing both the library and nonlibrary regions. In our analysis, we included data from the nonlibrary region as a stringent quality control measure to filter out low-quality data. For our analysis, we utilized 51 nucleotides from the NGS output, with 21 nucleotides encoding the library region and an additional 30 nucleotides for the nonlibrary region. […] Among all the sequences, only 85 of them contained more than 100 copies (blue area), while the remaining sequences all had low abundances (<10^2 copies, dark and light gray areas), which constituted 85.2% of the first round population. After three panning rounds, the selection converged to two highly enriched sequences: YDVYCYX (ENL-S1) and WWIIEXG (ENL-S2, X denotes BuK). Out of 551 different unique sequences collected from the third round, ENL-S1 and ENL-S2 represented 85% of the entire library (Figure 2A and Figures S6–S8). Both peptide sequences corresponded to their own unique DNA sequence, rather than there being varying codons encoding the same amino acids (Figure S7). […] Two motifs were found in the majority of sequences with high abundance (greater than 0.1%) (Figure S6). A Y(C/L)Y pattern was identified in the residues adjacent to BuK in four of the eight top sequences. Also, an H(L/Y)(T/V)LFXG (X denotes BuK) motif was observed, albeit at lower abundances, in two of the top sequences. In the initial round of selection, we observed that only a small percentage of phages were eluted, which aligns with typical outcomes in phage selection experiments since only a low copy number of phages can bind to the target.[10],[45] With each successive round of selection, we noted a gradual increase in the percentage of phages eluted. This incremental, rather than sharp, increase was attributed to the intensification of selection pressures, such as the application of more stringent washing protocols. We aimed for the incremental increase to retain potent clones with low copy numbers from the previous selection cycle. […]
Substance,n (number of NGS reads of the unique amino acid sequence),percent (share of sequence reads) [%]
QCGSRTAGD,3,0.002732
QFGPRTAGD,6,0.005464
RWIIETAGG,7,0.006374
SCPPRTAGD,10,0.009106
SCVVFTAGI,2,0.001821
SQCTAGECA,2,0.001821
TAGCGPRTAGD,3,0.002732
TAGVMSLYS,2,0.001821
TAGWIIETAGG,6,0.005464
TAIFCYTAG,3,0.002732
VYCYTAGVW,3,0.002732
WFILYTAGD,25,0.02277
WLIIETAGG,30,0.02732
WNCLYTAGD,4,0.003642
WQDTTAGTY,2,0.001821

# Next, values leading:
n (number of NGS reads of the unique amino acid sequence),percent (share of sequence reads) [%],Substance
10,0.009106,QCGQRTAGD
13,0.01184,QCGTRTAGD
5,0.004553,QCVPRTAGD
2,0.001821,QRGPRTAGD
2,0.001821,QYGPRTAGD
142,0.1293,RTVYCYTAG
2,0.001821,SLMMCQTAG
2,0.001821,SMHACTAGT
9,0.008196,SVIYCYTAG
5,0.004553,SWIIETAGG
8,0.007285,SWILWTAGG
79,0.07194,SWYITFTAG
2,0.001821,TAGTLWNVG
3,0.002732,TAGTVTFWY
2,0.001821,WCGPRTAGD
19,0.0173,WCIIETAGG
2,0.001821,WLIIETAGD

# Same assay, conditions: sheet ENLR3: round 3 of selection against ENL YEATS; TAG = amber codon (BuK)
Substance,n (number of NGS reads of the 7-mer sequence V1-V7),percent (share of NGS reads of the 7-mer sequence V1-V7) [%]
QCSPRTAGD,1,0.0009106
RCGPRTAGD,1,0.0009106
RTVYCHTAG,1,0.0009106
SLERTAGGF,1,0.0009106
SSGTAGKCV,1,0.0009106
STTAGKLFI,1,0.0009106
SWSITFTAG,1,0.0009106
TAGAFFCIL,1,0.0009106
TAGCGPRYD,1,0.0009106
TAGDVYCYTAG,1,0.0009106
TAGMVHIMV,1,0.0009106
TAGNVCGTV,1,0.0009106
TAGSFLYSF,1,0.0009106
TAGSSIITC,1,0.0009106
VATAGMWPC,1,0.0009106
VWVSTAGMT,1,0.0009106
WLAWRHL,1,0.0009106

# More lines, now with the values ahead:
n (number of NGS reads of the 7-mer sequence V1-V7),percent (share of NGS reads of the 7-mer sequence V1-V7) [%],Substance
1,0.0009106,QTAGERNAC
1,0.0009106,QWGPRTAGD
1,0.0009106,RLTLFTAGG
1,0.0009106,RTAGTESQL
1,0.0009106,RWVAGPTAG
1,0.0009106,SAVVATAGG
1,0.0009106,SGVGFTAGS
1,0.0009106,SLYITFTAG
1,0.0009106,SMMTAGSST
1,0.0009106,STAGTEIYC
1,0.0009106,STVYCYTAG
1,0.0009106,TAGGSWVPI
1,0.0009106,TAGKDQLWN
1,0.0009106,TAGSGVASC
1,0.0009106,TAGTYYVCR
1,0.0009106,TAGVFALVI
1,0.0009106,WCFMVFL
1,0.0009106,WFIYTAGGC
